Assay results taken from US8715970B2, “Enzymatically catalyzed method of preparing mono-acylated polyols” (BASF SE, priority 2009, dated 2014).

What was measured:
Assay type in all cases: biochemical
[1] = Enzyme-catalyzed acylation of 2-methyl-1,3-propanediol with vinyl butyrate as acyl donor (Example 3); details: 2-methyl-1,3-propanediol 10 mM, 200 mM vinyl butyrate in MTBE, 29° C.
Procedure: Each diol was dissolved to a concentration of 10 mM together with 2 mM of decane ≧98% from Fluka and 200 mM vinyl butyrate >99% from Fluka in MTBE 99.5% from Lab-Scan, which was used as acyl donor and solvent. Reactions were started by adding 4 ml reaction solution to 20 mg enzyme carrier beads loaded with either wild-type or T40A mutated CALB. Reactions were run at 29° C. on a HLC rotating thermo block. Aliquots of 50 μl were taken, filtered through wool in a Pasteur pipette and diluted with 50 μl ethyl acetate prior to analysis. The decane used as internal standard were present in the reaction solution throughout both reaction and analysis.
All reactions were analyzed on GC, Hewlett Packard 5890 series II. A 25 m×0.32 mm WCOT fused silica non-polar GC-column with CP-SIL 5CB coating was used for the reactions.
(§1) The response factor for each diol was determined in relationship to decane. When all diol and mono-ester had converted to di-ester, the response factor for the di-ester could be determined in relationship to decane. The concentration of mono-ester in each reaction was determined by subtracting the concentration of di-ester from the starting concentration of diol.

[2] = Acylation of 1,4-butanediol in competition with 1-butanol (Example 4)
Procedure: Additionally, 1-butanol, ≧99.5% from Riedel-de Haën, was used as a competing substrate.
25 mM decane ≧98% from Fluka, was used as internal standard.
Two different acyl donors were used:
Ethyl acetate, ≧99% from Fluka, used as both solvent and acyl donor
1 M Vinyl butyrate, >99% from Fluka, together with in MTBE, 99.5% from Lab-Scan, used as solvent.
Each diol was dissolved to a concentration of 100 mM together with 25 mM of decane in ethyl acetate, ≧99% from Fluka, used as acyl donor and solvent. Reactions were started by adding 3 ml reaction solution to 10 mg enzyme carrier beads loaded with wild-type CALB or 20 mg carrier beads loaded with T40A mutated CALB. Reactions were run at 29° C. in a temperature bath consisting of a HETO thermostat coupled to a Bom-roerder combined temperature bath and magnetic stirrer. 25 mM decane was used as internal standard were present in the reaction solution throughout both reaction and analysis. Aliquots of 60 μl were taken, filtered through wool in a Pasteur pipette together with 540 μl ethyl acetate prior to analysis. The filtration through wool removed any remaining enzyme from the reaction solution, and the reaction samples were diluted by a factor of 10 prior to analysis.
All reactions were analyzed on GC, Hewlett Packard 5890 series II. Two different 25 m×0.32 mm WCOT fused silica columns were used, depending on the different substrates and products that were analyzed. A polar GC-column with CP Chirasil-Dex CB coating was used for the reactions with 1,2-ethanediol. A non-polar GC-column with CP-SIL 5CB coating was used for the reactions with 1,4-butanediol.
as §1

[3] = Active site titration with inhibitor and activity measurement after inhibition (Example 1); details: for Share of immobilized enzyme inhibited (activity measurements after inhibition): 50 μM inhibitor in acetonitrile, activity with 1-butanol and vinyl butyrate in MTBE
Procedure: The amount of enzyme loaded on the carriers was confirmed by active site titration using the inhibitor methyl 4-methylumbelliferyl hexylphosphonate. Inhibitor from an ampoule stored in a freezer (−20° C.) was dissolved to a concentration of 50 μM in acetonitrile. The inhibitor was previously synthesized and used for active site titration of CALB as described in Magnusson, A. O., et al., Creating space for large secondary alcohols by rational redesign of Candida antarctica lipase B. Chembiochem, 2005. 6(6): p. 1051-1056 and Rotticci, D., et al., An active-site titration method for lipases. Biochimica Et Biophysica Acta-Molecular and Cell Biology of Lipids, 2000. 1483(1): p. 132-140.
Inhibition reactions were run in three separate vials each containing 50 mg enzyme carrier beads with immobilized CALB wild type and T40A-mutant. The wild type was run in one of the reaction vials, and the other two contained T40A-mutant. The enzymes were incubated in 1 ml of 50 μM inhibitor dissolved in acetonitrile. Each vial were sealed and covered in aluminium foil, to prevent light from damaging the fluorophore, and stored in continuous end over end. Aliquots were taken after 2, 5 and 9 days. […] Analysis was preformed by fluorescence using a Perkin Elmer LS 50 B fluorimeter. […] Fluorescence was also measured in two different control samples. Inhibitor, 50 μM in acetonitrile, was incubated without enzyme for control of background fluorescence from spontaneous hydrolysis of the methyl 4-methylumbelliferyl hexylphosphonate. In addition to this, 50 mg of each enzyme was incubated in acetonitrile without inhibitor for control of any background fluorescence from the immobilized enzyme. The total fluorescence from these samples was subtracted from the fluorescence measured in the inhibition reactions. […]
Remaining activity was measured after inhibition. […] For comparison, the reaction was repeated with the enzyme used for control of background fluorescence. […] The amounts of immobilized enzymes taken from the fluorescence controls used in the reactions were 2.8 mg of the wild type and 9.0 T40A. […]

Molecule | Maximum monoester yields [1] | Initial reaction rates ([2]; ethyl acetate) | Initial reaction rates ([2]; vinyl butyrate) | Share of immobilized enzyme inhibited (activity measurements after inhibition) [3] | Rate ratio, T40A/WT ([2]; ethyl acetate) | Selectivity towards diol over 1-butanol, compared with wild type CALB ([2]; ethyl acetate as acyl donor and solvent (FIG. 9B)) | Rate ratio, T40A/WT ([2]; vinyl butyrate) | Selectivity towards diol over 1-butanol, compared with wild type CALB ([2]; vinyl butyrate, MTBE (FIG. 10B)) | Remaining activity after inhibition ([3]; 100 mM 1-butanol, 1 M vinyl butyrate in MTBE)
WT: non-mutated Candida antarctica lipase B (CALB), SEQ ID NO: 2, immobilized on carrier beads (protein, listed as Candida antarctica, immobilized on carrier beads) LPSGSDPAFSQPKSVLDAGLTCQGASPSSVSKPILLVPGTGTTGPQSFDSNWIPLSAQLGYTPCWISPPPFMLNDTQVNTEYMVNAITTLYAGSGNNKLPVLTWSQGGLVAQWGLTFFPSIRSKVDRLMAFAPDYKGTVLAGPLDALAVSAPSVWQQTTGSALTTALRNAGGLTQIVPTTNLYSATDEIVQPQVSNSPLDSSYLFNGKNVQAQAVCGPLFVIDHAGSLTSQFSYVVGRSALRSTTGQARSADYGITDCNPLPANDLTPEQKVAAAALLAPAAAAIVAGPKQNCEPDLMPYARPFAVGKRTCSGIVTP | 34% | 0.065 mol/g/min | 0.16 mol/g/min | 83% |  |  |  |  | 
T40A: CALB mutant with single mutation Thr40Ala (SEQ ID NO: 4) (protein, T40 Mutant) LPSGSDPAFSQPKSVLDAGLTCQGASPSSVSKPILLVPGXGTTGPQSFDSNWIPLSAQLGYTPCWISPPPFMLNDTQVNTEYMVNAITTLYAGSGNNKLPVLTWSQGGLVAQWGLTFFPSIRSKVDRLMAFAPDYKGTVLAGPLDALAVSAPSVWQQTTGSALTTALRNAGGLTQIVPTTNLYSATDEIVQPQVSNSPLDSSYLFNGKNVQAQAVCGPLFVIDHAGSLTSQFSYVVGRSALRSTTGQARSADYGITDCNPLPANDLTPEQKVAAAALLAPAAAAIVAGPKQNCEPDLMPYARPFAVGKRTCSGIVTP | 56% | 0.0008 mol/g/min | 0.016 mol/g/min | 21% | 1.2% | higher | 9.6% | higher | to low to measure
